Test results published in the DeepSol protein solubility set.

assay: soluble on expression in E. coli; label from the status in PepcDB or PDB records

Sequence | soluble on expression in E. coli
DITLSKLAMGGKPTPFGLDESELSNALMLLRDCPQVSLKGFHFHLMSHQLDVERHLALMQRYFQVVKTWQQEFELGELMINLGGGMGINYQNPEQHFPWMEFCDKLEFLIAKEQVQDWTLRFECGRFITAACGYYVMEVLDIKQNLGESYVIARGGTHHFRTPAAQSHDHPFVILKSEQHHEISHPIQHAQATFVGQLCTPKDVLARNQHVAHVDIGDYVVFTLAGAYAWNISHQNFLMHEPPIFHYF | not soluble
DLYFNPRFLADDPQAVADLSRFENGQELPPGTYRVDIYLNNGYMATRDVTFNTGDSEQGIVPCLTRAQLASMGLNTASVAGMNLLADDACVPLTTMVQDATAHLDVGQQRLNLTIPQAFMSNRAR | soluble
DNPINIAVPGVAQQNVSATINNGTLTRRGNLWIARPTKVGSEAIISVTAQSGGRTIQMAKTTLRVRALPDPLPYIEYKDVQGNTKRFKGGRLGKREILAAGGIKAALDDDLLEVNYTVVKFQLVFYDSMGNSIPEVSDGASFSERQKRQIQNLGKGKRFYVTEVIARGPDGIERKIPAIEVIVN | not soluble
DPDTRIPVINLEDGTRLVGEDAPKNKDLVEWLKLHPTYTVDMPSYVPKNADVLFSSFQKPKQKRHRCRNPNKLDINTLTGEERVPVVNKRNGKKMGGAMAPPMKDLPRWLEENPEFAVAPDWTD | soluble
DSSALPTKRKTVKLFWRELKLAGGHGVSASRFGPCATLWASLDPVSVDTARLEHLFESRAKEVLPSKKAGEGRRTMTTVLDPKRSNAINIGLTTLPPVHVIKAALLNFDEFAVSKDGIEKLLTMMPTEEERQKIEEAQLANPDIPLGPAENFLMTLASIGGLAARLQLWAFKLDYDSMEREIAEPLFDLKVGMEQLVQNATFRCILATLLAVGNFLNGSQSSGFELSYLEKVSEVKDTVRRQSLLHHLCSLVLQTRPESSDLYSEIPALTRCAKVD | not soluble
DTPEPPLHNFYCSKLLDLVFLLDGSSMLSEAEFEVLKAFVVGMMERLHISQKRIRVAVVEYHDGSRAYLELKARKRPSELRRITSQIKYTGSQVASTSEVLKYTLFQIFGKIDRPEASHITLLLTASQEPPRMARNLVRYVQGLKKKKVIVIPVGIGPHASLKQIRLIEKQAPENKAFLLSGVDELEQRRDEIVSYLCDLAPEAPAPT | soluble
DVKVQGCVEDADLLIVGFGGTYGHLYSAMEEMNHAGKKVALAHFVHLNPLPHNTAEVLKKYKKVVVAEQNLGQFAGYLRMKVDGFVPYQFNEVKGQPFVVSELVDAFTEILNK | not soluble
DVQLQESGPGLVKPSQSLSLTCTVTGYSITNNYAWNWIRQFPGNKLEWMGYINYSGTTSYNPSLKSRISITRDTSKNQFFLQLNSVTTEDTATYFCVRGYDYFAMDYWGQGTSVTVSSAKTTPPSVYPLAPGSAAQTNSMVTLGCLVKGYFPEPVTVTWNSGSLSSGVHTFPAVLQSDLYTLSSSVTVPSSTWPSETVTCNVAHPASSTKVDKKIVPRDCG | soluble
DVVSYVSHATQQRLQNLVEKISETAQQKNFSYKDDDRYEQASDVRAQLKFFEQLDQIEKQRKDEQEREILMRAAKSRSRQEDPEQLRLKQKAKEMQQQELAQMRQRDANLTALAAIGPRKKRKVDCPGPGSGAEGSGPGSVVPGSSGVGTPRQFTRQRITRVNLRDLIFCLENERETSHSLLLYKAFLK | soluble
DVVVTQTPLSLPVSLGDQASISCRSSEVIVTRNGYTPIEWYLQKPGQSPKLLIYKAYKRFPGVPDRFSGSGSGTDFTLKISRVEAEDLGVYYCFDGSTVPPKFGGGTKLEIKRADAAPTVSIFPPSSEQLTSGGASVVCFLNNFYPKDINVKWKIDGSERQNGVLNSWTDQDSKDSTYSMSSTLTLTKDEYERHNSYTCEATHKTSTSPIVKSFNRDEC | soluble
DYESPIVNVVEACAPAVVKIDVVKTVKTSFFDPYFEQFFKKWFGELPPGFERQVASLGSGFIFDPEGYILTNYHVVGGADNITVTMLDGSKYDAEYIGGDEELDIAVIKIKASDKKFPYLEFGDSDKVKIGEWAIAIGNPLGFQHTVTVGVVSATNRRIPKPDGSGYYVGLIQTDAAINPGNSGGPLLNIHGEVIGINTAIVNPQEAVNLGFAIPINTVKKFLDTILTQKKVEKAYLGV | soluble
EAPLLYGDSSPEIVLVGHGSTYGVIKEIVDIFSKDKKIAMMHFSQIYPFPERDRFDYIEFLKNANLVISVENNATGQFAKLMRAETGFEFARQILKYDGRPFTIEKLKEEIDACL | not soluble
EDDEDYGDLGGCPFLVAENKTGYPTIVACKQDCNGTTETAPNGTRCFSIGDEGLRRMTANLPYDCPLGQCSNGDCIPKETYEVCYRRNWRDKKNHHHHHH | soluble
EEGLSGSKTFKIITKDYDIMNKEIKERLGRYCTFTKVTIDEENNSFVEISCVINKLEEQKLKEIINDVDPDAFIAIYDTAEVKAGNMKKSDIY | soluble
EEPTIGDIYNGKVTSIMQFGCFVQLEGLRKRWEGLVHISELRREGRVANVADVVSKGQRVKVKVLSFTGTKTSLSMKDVDQETGEDLNPNRRRNLV | soluble
EEVTVVAFAKQKKESVIGSIQTVKPAELKTPSSNLTTSLAGRMAGVIAYQRSGEPGKDNANFFIRGVTTFGYKKDPLILLDNVEVSSDDLARVQPDDIASFSVLKDATSTALYGARGANGVILVTTKEGKEG | not soluble
EFKDVFIEKQKGEILGVVIVESGWGSILPTVIIANMMHGGPAEKSGKLNIGDQIMSINGTSLVGLPLSTCQSIIKGLKNQSRVKLNIVRCPPVTTVLIRRPDLRYQLGFSVQNGIICSLMRGGIAERGGVRVGHRIIEINGQSVVATPHEKIVHILSNAVGEIHMKTMPAAMYRLLTAQEQPVYI | soluble
EFSGSFNRQFKLNKPVIPVNTEYVTRKEFNEYKDSNDQRLTKIENKVDKLEIKVDKLEKKVDKLEVKVDKLVETVNAQGEDLNNFKVEVRGTLQSQGETLQLILQTLQGMSKRLDSVEGRLDSMDGRLDSMETRLDKID | soluble
EHGPVTFVPDTPIESRARLSLPKQLVLRQSIVGAEVGVWTGETIPVRTCFGPLIGQQSHSMEVAEWTDKAVNHIWKIYHNGVLEFCIITTDENECNWMMFVRKARNREEQNLVAYPHDGKIFFCTSQDIPPENELLFYYSRDYAQQIGVPE | soluble
EHQAILSKRLESVESDIRLEQNTMDMTRIDARKMQMTGDLIMKNSVTVGGIAGASGQYAATQERSEQQISQVNNRVASTASDEARESSRKSTSLIQEMLKTMESINQSKASALAAIAGNIRA | not soluble
EIFSQELTQREANVKKVHENLEELQKKLDHTSFAHKEDRDRLEAQIAQKEQEQKAKLAEYDQKVQNEFDARERAEREREAARGDAAAEKQRLASLLKDLEDDASGYNRLRPSKPMLSEEDTNILRQLFLSSAVSGSGKFSFQDLKQVLAKYADTIPEGPLKKLFVMVENDTKGRMSYITLVAVANDLAALVADFRKIDTNSNGTLSRKEFREHFVRLGFDKKSVQDALFRYADEDESDDVGFSEYVHLGLCLLVLRILYAFADFDKSGQLSKEEVQKVLEDAHIPESARKKFEHQFSVVDVDDSKSLSYQEFVMLVLLMFHDD | soluble
EKDKYALALKDKGNQFFRNKKYDDAIKYYNWALELKEDPVFYSNLSACYVSVGDLKKVVEMSTKALELKPDYSKVLLRRASANEGLGKFADAMFDLSVLSLNGDFNDASIEPMLERNLNKQAMSKLKEKFGDIDTATATPTELSTQPAKERKDKQENLPSVTSMASFFGIFKPELTFANYDESNEADKELMNGLSNLYKRSPESYDKADESFTKAARLFEEQLDKNNEDEKLKEKLAISLEHTGIFKFLKNDPLGAHEDIKKAIELFPRVNSYIYMALIMADRNDSTEYYNYFDKALKLDSNNSSVYYHRGQMNFILQNYDQAGKDFDKAKELDPENIFPYIQLACLAYRENKFDDCETLFSEAKRKFPEAPEVPNFFAEILTDKNDFDKALKQYDLAIELENKLDGIYVGIAPLVGKATLLTRNPTVENFIEATNLLEKASKLDPRSEQAKIGLAQMKLQQEDIDEAITLFEESADLARTMEEKLQAITFAEAAKVQQRIRSDPVLAKKIQET | soluble
